One molecule from US20140357845A1 can be followed below.

A word on the Kd: it is the free concentration of one partner at which half of the binding sites on the other are occupied at equilibrium, for simple one-to-one binding.

Common to all, as to conditions: remark: other sources report otherwise
The target of test [1] is T1, s-H1-mini2-cluster1 + 5 + 6-GCN4 (A/Brisbane/59/2007) (influenza A virus H1N1).
Test [2] addresses H1-mini2-cluster1 + 5 + 6-trim (influenza A virus H1N1), A8C8J4. Description: FACS. In general terms: Flow cytometry measures light scatter and fluorescence of single cells or particles in a stream.
Test [3] concerns the target mini2 cluster11 + 5 (A/Brisbane/59/2007) (influenza A virus H1N1), A8C8J4. Description: FACS.
In test [4] the target is mini2-cluster1 + 5 (A/Brisbane/59/2007) (influenza A virus H1N1), A8C8J4. Description: FACS.
Test [5] addresses mini2-cluster11 + 5 + 6 (A/Brisbane/59/2007) (influenza A virus H1N1), A8C8J4. Description: FACS.
Test [6] concerns the target miniHA cluster1 (A/Brisbane/59/2007) (influenza A virus H1N1), A8C8J4. The test is described as follows: FACS.
In test [7] the target is T1, s-H1-mini2-cluster1 + 5 + 6-GCN4 …. Description: BLI steady state titration, 1:1 model.

B1: CR6261 (antibody, V domains shown)
VH: EVQLVESGAEVKKPGSSVKVSCKASGGPFRSYAISWVRQAPGQGPEWMGGIIPIFGTTKYAPKFQGRVTITADDFAGTVYMELSSLRSEDTAMYYCAKHMGYQVRETMDVWGKGTTVTVSS
VL: QSVLTQPPSVSAAPGQKVTISCSGSSSNIGNDYVSWYQQLPGTAPKLLIYDNNKRPSGIPDRFSGSKSGTSATLGITGLQTGDEANYYCATWDRRPTAYVVFGGGTKLTVLG
For the molecule B1, the BLI maximum response in test [1] turned out to be 0.25 nm. The % positive cells is 80% in test [2]; 80% in test [3]; 80% in test [4]; 80% in test [5]; 60% in test [6]. The fold reduction of MFI against SEQ ID NO: 46 in test [2] is 3 to 4 fold. The MFI relative to full-length HA came to 50% in test [3] and 10% in test [6]. Moreover, the Kd in test [7] is 190 nM.
